21 molecules from patent US20210261648A1 (published 2021) can be followed below.

To fix the notation:
T1: FcγRIIb (human, UniProt P31994 43-217)
T1 construct: extracellular domain; also called FcgRIIb; CD32B
T1 sequence (looked up): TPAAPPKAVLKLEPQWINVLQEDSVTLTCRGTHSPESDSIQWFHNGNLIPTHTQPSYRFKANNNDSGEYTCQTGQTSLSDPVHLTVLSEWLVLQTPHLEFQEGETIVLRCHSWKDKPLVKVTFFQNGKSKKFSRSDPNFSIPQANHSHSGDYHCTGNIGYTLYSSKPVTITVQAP

T2: FcγRIIa type R (human, UniProt P12318 34-217)
T2 chain: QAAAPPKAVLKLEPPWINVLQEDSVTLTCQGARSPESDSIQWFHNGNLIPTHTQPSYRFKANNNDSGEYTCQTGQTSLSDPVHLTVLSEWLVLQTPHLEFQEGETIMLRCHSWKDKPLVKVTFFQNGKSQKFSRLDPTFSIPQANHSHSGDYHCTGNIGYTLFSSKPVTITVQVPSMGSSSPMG

B1: IL6R-BP262/IL6R-L (antibody, human IgG1, kappa)
heavy: QVQLQESGPGLVKPSETLSLTCAVSGHSISHDHAWSWVRQPPGEGLEWIGFISYSGITNYNPSLQGRVTISRDNSKNTLYLQMNSLRAEDTAVYYCARSLARTTAMDYWGEGTLVTVSSASTKGPSVFPLAPSSKSTSGGTAALGCLVKDYFPEPVTVSWNSGALTSGVHTFPAVLQSSGLYSLSSVVTVPSSSLGTQTYICNVNHKPSNTKVDKKVEPKSCDKTHTCPPCPAPELLGDDSVFLFPPKPKDTLMISRTPEVTCVVVDVSEEDGEVKFNWYVDGVEVHNAKTKPREEQYNSTYRVVSVLTVLHQDWLNGKEYKCKVSNKALPAPIEKTISKAKGQPREPQVYTLPPSRDELTKNQVSLTCLVKGFYPSDIAVEWESNGQPENNYKTTPPVLDSDGSFFLYSKLTVDKSRWQQGNVFSCSVMHEALHNHYTQESLSLSP
light: not shown
notes: Alterations in EU numbering, introduced into IL6R-B3
B2: IL6R-BP555/IL6R-L (antibody, human IgG1, kappa)
heavy: B1 heavy with V266I, S269A, E274D, Y298D, A332R
light: not shown
notes: as for B1
B3: IL6R-BP493/IL6R-L (antibody, human IgG1, kappa)
heavy: B1 heavy with D239G, V266I, S269A, Y298D
light: not shown
notes: as for B1
B4: IL6R-BP479/IL6R-L (antibody, human IgG1, kappa)
heavy: B1 heavy with E235D, V266I, V268L, S269A
light: not shown
notes: as for B1
B5: IL6R-BP492/IL6R-L (antibody, human IgG1, kappa)
heavy: B1 heavy with D239G, V266I, S269A
light: not shown
notes: as for B1
B6: IL6R-BP531/IL6R-L (antibody, human IgG1, kappa)
heavy: B1 heavy with E235D, V266I, S269G, Y298D, A332R, P398M
light: not shown
notes: as for B1
B7: IL6R-BP483/IL6R-L (antibody, human IgG1, kappa)
heavy: B1 heavy with E235D, V268L, S269A
light: not shown
notes: as for B1
B8: IL6R-BP481/IL6R-L (antibody, human IgG1, kappa)
heavy: B1 heavy with E235D, V266I, S269A
light: not shown
notes: as for B1
B9: IL6R-BP507/IL6R-L (antibody, human IgG1, kappa)
heavy: B1 heavy with E235D, V266I, S269A, E274P, A332R
light: not shown
notes: as for B1
B10: IL6R-BP535/IL6R-L (antibody, human IgG1, kappa)
heavy: B1 heavy with E235D, V266I, S269G, Y298D, A329G, A332R, P398M
light: not shown
notes: as for B1
B11: IL6R-BP553/IL6R-L (antibody, human IgG1, kappa)
heavy: B1 heavy with E235D, V266I, S269A, E274D, A332R
light: not shown
notes: as for B1
B12: IL6R-BP506/IL6R-L (antibody, human IgG1, kappa)
heavy: B1 heavy with E235D, V266I, S269A, E274P, Y298D, A332R
light: not shown
notes: as for B1
B13: IL6R-BP532/IL6R-L (antibody, human IgG1, kappa)
heavy: B1 heavy with E235D, V266I, Y298D, A332R, P398M
light: not shown
notes: as for B1
B14: IL6R-BP552/IL6R-L (antibody, human IgG1, kappa)
heavy: B1 heavy with E235D, V266I, S269A, E274D, Y298D, A332R
light: not shown
notes: as for B1
B15: IL6R-BP537/IL6R-L (antibody, human IgG1, kappa)
heavy: B1 heavy with V266I, S269G, A332R
light: not shown
notes: as for B1
B16: IL6R-BP269/IL6R-L (antibody, human IgG1, kappa)
heavy: B1 heavy with Y298D
light: not shown
notes: as for B1
B17: IL6R-BP490/IL6R-L (antibody, human IgG1, kappa)
heavy: B1 heavy with V266I, S269A, A332R
light: not shown
notes: as for B1
B18: IL6R-BP484/IL6R-L (antibody, human IgG1, kappa)
heavy: B1 heavy with E235D, S269A, E271D
light: not shown
notes: as for B1
B19: IL6R-BP534/IL6R-L (antibody, human IgG1, kappa)
heavy: B1 heavy with E235D, V266I, Y298D, A332R, P398L
light: not shown
notes: as for B1
B20: IL6R-BP268/IL6R-L (antibody, human IgG1, kappa)
heavy: B1 heavy with E235D, Y298D
light: not shown
notes: as for B1
B21: IL6R-BP445/IL6R-L (antibody, human IgG1, kappa)
heavy: B1 heavy with E235D, V266I, S269A, A332R
light: not shown
notes: as for B1

Where a chain is given by its changes, count along the chain named.

The first assay concerns the target T1, FcγRIIb. Kind of assay: SPR (Biacore), captured antibody, soluble FcγR. (In SPR one partner is held on a chip, and binding of the other changes the refractive index at the surface.)
Regarding B1, the affinity, expressed as Kd, was 0.12 µM.
B2 showed a Kd of 0.0041 µM.
Same read-out and setting: with B3 the figure was 0.021 µM; with B4, 0.056 µM; with B5, 0.024 µM.
Still for that read-out and setting: the result for B6 reads 0.0038 µM; that for B7, 0.078 µM.
In the case of B8, the affinity, expressed as Kd, was 0.019 µM.
In the case of B9, the Kd is 0.0029 µM.
The same measure, in the same setting: with B10 the figure was 0.004 µM; with B11, 0.0031 µM; with B12, 0.0034 µM.
Still for that read-out and setting: the result for B13 reads 0.0032 µM; that for B14, 0.0026 µM.
Same read-out and setting: the result for B15 reads 0.0069 µM.
In turn, B16 returned a Kd of 0.11 µM.
Still for that read-out and setting: the result for B17 reads 0.0024 µM.
With B18, binding was put at a Kd of 0.046 µM.
With B19, the Kd was 0.003 µM.
Turning to B20, the Kd was determined as 0.092 µM.
As for B21, the affinity, expressed as Kd, was 0.0026 µM.

In a further assay the target is T2, FcγRIIa type R. Kind of assay: SPR (Biacore), captured antibody, soluble FcγR.
Molecule B1 showed a dissociation constant (Kd) of 2 µM.
The same measure, in the same setting: the result for B2 reads 0.16 µM.
Same read-out and setting: the result for B3 reads 1.1 µM; that for B4, 0.9 µM.
On the same count and under the same terms, the result for B5 reads 0.92 µM; that for B6, 0.12 µM; that for B7, 1.3 µM.
In turn, B8 displayed a Kd of 0.4 µM.
Consider B9, for which the equilibrium dissociation constant (Kd) stood at 0.1 µM.
B10 returned a Kd of 0.092 µM.
On to B11, for which binding was put at a Kd of 0.086 µM.
For B12, the Kd came out at 0.12 µM.
On the same count and under the same terms, with B13 the figure was 0.094 µM; with B14, 0.097 µM; with B15, 0.27 µM.
The same measure, in the same setting: the result for B16 reads 2.2 µM; that for B17, 0.11 µM; that for B18, 0.78 µM.
The same measure, in the same setting: the result for B19 reads 0.091 µM; that for B20, 1.8 µM; that for B21, 0.08 µM.

The target in a further assay is T3, FcγRIa (human, UniProt P12314 16-292).
T3 construct: Whole entry named; also called FcgRIa; CD64A
T3 sequence (P12314 16-292): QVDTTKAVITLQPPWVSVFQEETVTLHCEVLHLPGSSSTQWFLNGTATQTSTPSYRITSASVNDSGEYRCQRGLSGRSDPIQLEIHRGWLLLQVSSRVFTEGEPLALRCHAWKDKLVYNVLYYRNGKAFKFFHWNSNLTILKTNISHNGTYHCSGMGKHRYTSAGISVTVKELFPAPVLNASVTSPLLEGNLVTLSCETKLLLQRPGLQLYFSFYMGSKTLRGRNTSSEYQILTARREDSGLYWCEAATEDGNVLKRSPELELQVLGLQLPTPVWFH
Kind of assay: SPR (Biacore), captured antibody, soluble FcγR.
Regarding B1, the Kd came to 0.01 µM.
On the same count and under the same terms, the result for B2 reads 0.0094 µM.
Still for that read-out and setting: the result for B3 reads 0.00082 µM.
As for B4, binding was put at a Kd of 0.0053 µM.
The same measure, in the same setting: with B5 the figure was 0.00079 µM.
As for B6, the Kd came out at 0.0094 µM.
Still for that read-out and setting: the result for B7 reads 0.0013 µM.
On the same count and under the same terms, with B8 the figure was 0.001 µM.
Still for that read-out and setting: the result for B9 reads 0.0026 µM; that for B10, 0.011 µM.
In turn, B11 showed a Kd of 0.0034 µM.
Still for that read-out and setting: with B12 the figure was 0.0031 µM.
The same measure, in the same setting: with B13 the figure was 0.012 µM; with B14, 0.0032 µM; with B15, 0.029 µM.
Consider B16, for which the Kd worked out at 0.014 µM.
Still for that read-out and setting: the result for B17 reads 0.0045 µM; that for B18, 0.00082 µM.
Same read-out and setting: with B19 the figure was 0.0093 µM.
Same read-out and setting: with B20 the figure was 0.0045 µM; with B21, 0.002 µM.

The target of another assay is T1, FcγRIIb. Kind of assay: SPR (Biacore); parent = IL6R-B3/IL6R-L.
Consider B1, for which the “KD(IIb) of the parent polypeptide/KD(IIb) of the altered polypeptide” value (“KD(IIb)” for short) worked out at 25.8 fold.
Consider B3, for which the “KD(IIb)” value came out at 147 fold.
As to B4, the “KD(IIb)” value was determined as 55.5 fold.
Still for that read-out and setting: the result for B5 reads 131 fold; that for B7, 39.7 fold.
The same measure, in the same setting: the result for B8 reads 160 fold; that for B16, 27.4 fold; that for B18, 67.8 fold.
The same measure, in the same setting: the result for B20 reads 33.7 fold; that for B21, 1200 fold.

Another assay deals with T2, FcγRIIa type R. Kind of assay: SPR (Biacore); parent = IL6R-B3/IL6R-L.
Regarding B1, the “KD(IIaR) of the parent polypeptide/KD(IIaR) of the altered polypeptide” value (from here on “KD(IIaR)”) was found to be 0.5 fold.
Same read-out and setting: with B3 the figure was 1 fold; with B4, 1.2 fold; with B5, 1.2 fold.
The same measure, in the same setting: the result for B7 reads 0.8 fold; that for B8, 2.8 fold.
For B16, the “KD(IIaR)” value came out at 0.5 fold.
As for B18, the “KD(IIaR)” value stood at 1.4 fold.
On the same count and under the same terms, with B20 the figure was 0.6 fold; with B21, 13.8 fold.

The term Kd denotes the free concentration of one partner at which half of the binding sites on the other are occupied at equilibrium, for simple one-to-one binding. Low readings indicate tighter binding, high ones weaker binding.
